{"source": "the supplement of paper PMC12458215", "test_system": "HEK293T", "assay": "plasma membrane surface immunostaining intensity (anti-HA, deep receptor scanning) (arbitrary fluorescence units); higher = higher plasma membrane expression", "note": "± gives the uncertainty stated by the source."}
{"sequence": "MPPSISAFQAAYIGIEVLIALVSVPGNVLVIWAVKVNQALRDATFCFIVSLAVADVAVGALVIPLAILINIGPQTYFHTCLMVACPVLILTQSSILALLAIAVDRYLRVKIPLRYKMVVTPRRAAVAIAGCWILSFVVGLTPMFGWNNLSAVERAWAANGSMGEPVIKCEFEKVISMEYMVYFNFFVWVLPPLLLMVLIYLEVFYLIRKQLNKKVSASSGDPQKYYGKELKIAKSLALILFLFALSWLPLHILNCITLFCPSCHKPSILTYIAIFLTHGNSAMNPIVYAFRIQKFRVTFLKIWNDHFRCQPAPPIDEDLPEERPDD [ADORA1]", "values": [{"measurement": "plasma membrane surface immunostaining intensity", "setting": "GPCR class: A", "value": "6412 ± 62"}]}
{"sequence": "MDPTTPAWGTESTTVNGNDQALLLLCGKETLIPVFLILFIALVGLVGNGFVLWLLGFRMRRNAFSVYVLSLAGADFLFLCFQIINCLVYLSNFFCSISINFPSFFTTVMTCAYLAGLSMLSTVSTERCLSVLWPIWYRCRRPRHLSAVVCVLLWALSLLLSILEGKFCGFLFSDGDSGWCQTFDFITAAWLIFLFMVLCGSSLALLVRILCGSRGLPLTRLYLTILLTVLVFLLCGLPFGIQWFLILWIWKDSDVLFCHIHPVSVVLSSLNSSANPIIYFFVGSFRKQWRLQQPILKLALQRALQDIAEVDHSEGCFRQGTPEMSRSSLV [MRGPRX2]", "values": [{"measurement": "plasma membrane surface immunostaining intensity", "setting": "GPCR class: A", "value": "359 ± 8.2"}]}
{"sequence": "MELLKLNRSVQGTGPGPGASLCRPGAPLLNSSSVGNLSCEPPRIRGAGTRELELAIRITLYAVIFLMSVGGNMLIIVVLGLSRRLRTVTNAFLLSLAVSDLLLAVACMPFTLLPNLMGTFIFGTVICKAVSYLMGVSVSVSTLSLVAIALERYSAICRPLQARVWQTRSHAARVIVATWLLSGLLMVPYPVYTVVQPVGPRVLQCVHRWPSARVRQTWSVLLLLLLFFIPGVVMAVAYGLISRELYLGLRFDGDSDSDSQSRVRNQGGLPGAVHQNGRCRPETGAVGEDSDGCYVQLPRSRPALELTALTAPGPGSGSRPTQAKLLAKKRVVRMLLVIVVLFFLCWLPVYSANTWRAFDGPGAHRALSGAPISFIHLLSYASACVNPLVYCFMHRRFRQACLETCARCCPRPPRARPRALPDEDPPTPSIASLSRLSYTTISTLGPG [CCKBR]", "values": [{"measurement": "plasma membrane surface immunostaining intensity", "setting": "GPCR class: A", "value": "2920 ± 830"}]}
{"sequence": "MPVGKLVFNQSEPTEFVFRAFTTATEFQVLLFLLFLLLYLMILCGNTAIIWVVCTHSTLRTPMYFFLSNLSFLELCYTTVVVPLMLSNILGAQKPISLAGCGAQMFFFVTLGSTDCFLLAIMAYDRYVAICHPLHYTLIMTRELCTQMLGGALGLALFPSLQLTALIFTLPFCGHHQEINHFLCDVPPVLRLACADIRVHQAVLYVVSILVLTIPFLLICVSYVFITCAILSIRSAEGRRRAFSTCSFHLTVVLLQYGCCSLVYLRPRSSTSEDEDSQIALVYTFVTPLLNPLLYSLRNKDVKGALRSAIIRKAASDAN [OR10Q1]", "values": [{"measurement": "plasma membrane surface immunostaining intensity", "setting": "GPCR class: A (Olfactory)", "value": "243 ± 67"}]}
{"sequence": "MSLFLSNLSTNDSSLWKENHNSTDLLNPPGTLNIYLFCLTCLMTFAALVGSIYSLISLLKMQNRTVVSMLVASWSVDDLMSVLSVTIFMFLQWPNEVPGYFQFLCTTSALMYLCQGLSSNLKATLLVSYNFYTMHRGVGSQTASRRSGQVLGVVLTVWAASLLLSALPLCGWGAFVRTPWGCLVDCSSSYVLFLSIVYALAFGLLVGLSVPLTHRLLCSEEPPRLHSNYQEISRGASIPGTPPTAGRVVSLSPEDAPGPSLRRSGGCSPSSDTVFGPGAPAAAGAEACRRENRGTLYGTRSFTVSVAQKRFALILALTKVVLWLPMMMHMVVQNVVGFQSLPLETFSFLLTLLATTVTPVFVLSKRWTHLPCGCIINCRQNAYAVASDGKKIKRKGFEFNLSFQKSYGIYKIAHEDYYDDDENSIFYHNLMNSECETTKDPQRDNRNIFNAIKVEISTTPSLDSSTQRGINKCTNTDITEAKQDSNNKKDAFSDKTGGDINYEETTFSEGPERRLSHEESQKPDLSDWEWCRSKSERTPRQRSGYALAIPLCAFQGTVSLHAPTGKTLSLSTYEVSAEGQKITPASKKIEVYRSKSVGHEPNSEDSSSTFVDTSVKIHLEVLEICDNEEALDTVSIISNISQSSTQVRSPSLRYSRKENRFVSCDLGETASYSLFLPTSNPDGDINISIPDTVEAHRQNSKRQHQERDGYQEEIQLLNKAYRKREEESKGS [GPR149]", "values": [{"measurement": "plasma membrane surface immunostaining intensity", "setting": "GPCR class: A", "value": "1060 ± 320"}]}
{"sequence": "MDTGPDQSYFSGNHWFVFSVYLLTFLVGLPLNLLALVVFVGKLRCRPVAVDVLLLNLTASDLLLLLFLPFRMVEAANGMHWPLPFILCPLSGFIFFTTIYLTALFLAAVSIERFLSVAHPLWYKTRPRLGQAGLVSVACWLLASAHCSVVYVIEFSGDISHSQGTNGTCYLEFRKDQLAILLPVRLEMAVVLFVVPLIITSYCYSRLVWILGRGGSHRRQRRVAGLVAATLLNFLVCFGPYNVSHVVGYICGESPVWRIYVTLLSTLNSCVDPFVYYFSSSGFQADFHELLRRLCGLWGQWQQESSMELKEQKGGEEQRADRPAERKTSEHSQGCGTGGQVACAEN [GPR42]", "values": [{"measurement": "plasma membrane surface immunostaining intensity", "setting": "GPCR class: A", "value": "798 ± 40"}]}
{"sequence": "MVNQSSTPGFLLLGFSEHPGLERTLFVVVLTSYLLTLVGNTLIILLSALDPKLHSPMYFFLSNLSFLDLCFTTSCVPQMLVNLWGPKKTISFLDCSVQIFIFLSLGTTECILLTVMAFDRYVAVCQPLHYATIIHPRLCWQLASVAWVIGLVESVVQTPSTLHLPFCPDRQVDDFVCEVPALIRLSCEDTSYNEIQVAVASVFILVVPLSLILVSYGAITWAVLRINSAKGRRKAFGTCSSHLTVVTLFYSSVIAVYLQPKNPYAQERGKFFGLFYAVGTPSLNPLIYTLRNKEVTRAFRRLLGKEMGLTQS [OR2H2]", "values": [{"measurement": "plasma membrane surface immunostaining intensity", "setting": "GPCR class: A (Olfactory)", "value": "145 ± 10"}]}
{"sequence": "MRLSAGPDAGPSGNSSPWWPLATGAGNTSREAEALGEGNGPPRDVRNEELAKLEIAVLAVTFAVAVLGNSSVLLALHRTPRKTSRMHLFIRHLSLADLAVAFFQVLPQMCWDITYRFRGPDWLCRVVKHLQVFGMFASAYMLVVMTADRYIAVCHPLKTLQQPARRSRLMIAAAWVLSFVLSTPQYFVFSMIEVNNVTKARDCWATFIQPWGSRAYVTWMTGGIFVAPVVILGTCYGFICYNIWCNVRGKTASRQSKGAEQAGVAFQKGFLLAPCVSSVKSISRAKIRTVKMTFVIVTAYIVCWAPFFIIQMWSVWDPMSVWTESENPTITITALLGSLNSCCNPWIYMFFSGHLLQDCVQSFPCCQNMKEKFNKEDTDSMSRRQTFYSNNRSPTNSTGMWKDSPKSSKSIKFIPVST [AVPR1A]", "values": [{"measurement": "plasma membrane surface immunostaining intensity", "setting": "GPCR class: A", "value": "497 ± 41"}]}
{"sequence": "MTTSLDTVETFGTTSYYDDVGLLCEKADTRALMAQFVPPLYSLVFTVGLLGNVVVVMILIKYRRLRIMTNIYLLNLAISDLLFLVTLPFWIHYVRGHNWVFGHGMCKLLSGFYHTGLYSEIFFIILLTIDRYLAIVHAVFALRARTVTFGVITSIVTWGLAVLAALPEFIFYETEELFEETLCSALYPEDTVYSWRHFHTLRMTIFCLVLPLLVMAICYTGIIKTLLRCPSKKKYKAIRLIFVIMAVFFIFWTPYNVAILLSSYQSILFGNDCERSKHLDLVMLVTEVIAYSHCCMNPVIYAFVGERFRKYLRHFFHRHLLMHLGRYIPFLPSEKLERTSSVSPSTAEPELSIVF [CCR3]", "values": [{"measurement": "plasma membrane surface immunostaining intensity", "setting": "GPCR class: A", "value": "391 ± 99"}]}
{"sequence": "MKLWMESHLIVPETRPSPRMMSNQTLVTEFILQGFSEHPEYRVFLFSCFLFLYSGALTGNVLITLAITFNPGLHAPMYFFLLNLATMDIICTSSIMPKALASLVSEESSISYGGCMAQLYFLTWAASSELLLLTVMAYDRYAAICHPLHYSSMMSKVFCSGLATAVWLLCAVNTAIHTGLMLRLDFCGPNVIIHFFCEVPPLLLLSCSSTYVNGVMIVLADAFYGIVNFLMTIASYGFIVSSILKVKTAWGRQKAFSTCSSHLTVVCMYYTAVFYAYISPVSGYSAGKSKLAGLLYTVLSPTLNPLIYTLRNKEVKAALRKLFPFFRN [OR13A1]", "values": [{"measurement": "plasma membrane surface immunostaining intensity", "setting": "GPCR class: A (Olfactory)", "value": "120 ± 26"}]}
{"sequence": "MASLSQLSGHLNYTCGAENSTGASQARPHAYYALSYCALILAIVFGNGLVCMAVLKERALQTTTNYLVVSLAVADLLVATLVMPWVVYLEVTGGVWNFSRICCDVFVTLDVMMCTASILNLCAISIDRYTAVVMPVHYQHGTGQSSCRRVALMITAVWVLAFAVSCPLLFGFNTTGDPTVCSISNPDFVIYSSVVSFYLPFGVTVLVYARIYVVLKQRRRKRILTRQNSQCNSVRPGFPQQTLSPDPAHLELKRYYSICQDTALGGPGFQERGGELKREEKTRNSLSPTIAPKLSLEVRKLSNGRLSTSLKLGPLQPRGVPLREKKATQMVAIVLGAFIVCWLPFFLTHVLNTHCQTCHVSPELYSATTWLGYVNSALNPVIYTTFNIEFRKAFLKILSC [DRD3]", "values": [{"measurement": "plasma membrane surface immunostaining intensity", "setting": "GPCR class: A", "value": "3810 ± 240"}]}
{"sequence": "MDKINQTFVREFILLGLSGYPKLEIIFFALILVMYVVILIGNGVLIIASILDSRLHMPMYFFLGNLSFLDICYTTSSIPSTLVSLISKKRNISFSGCAVQMFFGFAMGSTECFLLGMMAFDRYVAICNPLRYPIIMNKVVYVLLTSVSWLSGGINSTVQTSLAMRWPFCGNNIINHFLCEILAVLKLACSDISVNIVTLAVSNIAFLVLPLLVIFFSYMFILYTILRTNSATGRHKAFSTCSAHLTVVIIFYGTIFFMYAKPKSQDLLGKDNLQATEGLVSMFYGVVTPMLNPIIYSLRNKDVKAAIKYLLSRKAINQ [OR13C4]", "values": [{"measurement": "plasma membrane surface immunostaining intensity", "setting": "GPCR class: A (Olfactory)", "value": "311 ± 110"}]}
{"sequence": "MALLLVSLLAFLSLGSGCHHRICHCSNRVFLCQESKVTEIPSDLPRNAIELRFVLTKLRVIQKGAFSGFGDLEKIEISQNDVLEVIEADVFSNLPKLHEIRIEKANNLLYINPEAFQNLPNLQYLLISNTGIKHLPDVHKIHSLQKVLLDIQDNINIHTIERNSFVGLSFESVILWLNKNGIQEIHNCAFNGTQLDELNLSDNNNLEELPNDVFHGASGPVILDISRTRIHSLPSYGLENLKKLRARSTYNLKKLPTLEKLVALMEASLTYPSHCCAFANWRRQISELHPICNKSILRQEVDYMTQARGQRSSLAEDNESSYSRGFDMTYTEFDYDLCNEVVDVTCSPKPDAFNPCEDIMGYNILRVLIWFISILAITGNIIVLVILTTSQYKLTVPRFLMCNLAFADLCIGIYLLLIASVDIHTKSQYHNYAIDWQTGAGCDAAGFFTVFASELSVYTLTAITLERWHTITHAMQLDCKVQLRHAASVMVMGWIFAFAAALFPIFGISSYMKVSICLPMDIDSPLSQLYVMSLLVLNVLAFVVICGCYIHIYLTVRNPNIVSSSSDTRIAKRMAMLIFTDFLCMAPISFFAISASLKVPLITVSKAKILLVLFHPINSCANPFLYAIFTKNFRRDFFILLSKCGCYEMQAQIYRTETSSTVHNTHPRNGHCSSAPRVTSGSTYILVPLSHLAQN [FSHR]", "values": [{"measurement": "plasma membrane surface immunostaining intensity", "setting": "GPCR class: A", "value": "378 ± 44"}]}
{"sequence": "MKANYSAEERFLLLGFSDWPSLQPVLFALVLLCYLLTLTGNSALVLLAVRDPRLHTPMYYFLCHLALVDAGFTTSVVPPLLANLRGPALWLPRSHCTAQLCASLALGSAECVLLAVMALDRAAAVCRPLRYAGLVSPRLCRTLASASWLSGLTNSVAQTALLAERPLCAPRLLDHFICELPALLKLACGGDGDTTENQMFAARVVILLLPFAVILASYGAVARAVCCMRFSGGRRRAVGTCGSHLTAVCLFYGSAIYTYLQPAQRYNQARGKFVSLFYTVVTPALNPLIYTLRNKKVKGAARRLLRSLGRGQAGQ [OR2I1P]", "values": [{"measurement": "plasma membrane surface immunostaining intensity", "setting": "GPCR class: A (Olfactory)", "value": "132 ± 5.4"}]}
